Experimental data as given in the DeepSol protein solubility set.

Test: soluble on expression in E. coli; label from the status in PepcDB or PDB records

Soluble on expression in E. coli, soluble:
MGKITGFLEIERHDRKYTPVAERVKHFHEFVVPLTERETRDQAARCMNCGIPYCHGTGSVAPGTPGCPVNNQIPDFNDLVYQGNWEEASRNLHSTNNFPEFTGRICPAPCEASCTLNIDDNPVTIKTIECAIVDRAWDNGWLKPEVASVKTGKKVAVIGSGPAGMACAQQLARAGHDVHLFEKFAKAGGLLRYGIPDFKMEKGIIDRRVKQMEGEGVTFHYNSHVGADGNVDPREMLNEYDAVALTGGAEAPRDLPIPGRDLQGIHYAMDFLPQQNRRVSEEPLNGVTEILAGGKHVVVIGGGDTGSDCIGTSLRQGALSVTQLEIMPAPPERENKGLTWPNWPLKMRTSSSQAEGAIREFAVLTQKFSGENGQVKKLHCVRVDDKFKPIAGTEFELDAELVLLAMGFVHPVHEGLLKLLSVELDPRGNVKANTLDYQTSRPNVFTAGDMRRGQSLVVWAIREGRLCARSIDTFLMGKTDLPRLEHHHHHH
MSNHQKRLSVPNSWPVERKTATFTVKAGAGPHGESGVPLLIVLRDVLGYADNRKEARYALNEDNVLINGKAISDEERPVGMFDILAFTEREEYYRVFPGEGGRLALTAIDPDAAQSKLGKIVTKTHVSGGDVQLGLHDGETLIVEDDQTYDAGDSIVVGNEDGEVVAHFEYEEGALVTAVDGAHAGEVGEVEEIQVTPGSAQNNVIVSQDEGEGFETVEEYVVVIDENFTGDDELEHHHHHH
GIALVLIAAGLGLARLLLGPEVVAALVQRGNLVQTVVASGHIETPYRVEIASQITGTVKDVLVKEGEQVHQGQQLVAIEASELQASVVQAEGAVAQAQARVRQLRELTKPAADEALKQAQANLLNAQAAYERASKLAASGYGTKATLDDATKNLDVARTQVRTAELQVFTTSPGGSDFVMAETQLGQALANLNTAQARLGYATIVAPRDGVLITRNVERGTVVQPGKALLVLAPAGDIQIVVQIDEKNLGQLALGQHAMASADAYPDKRFDATLSYINPSVDINRASVEIKLKVDDPPDYLRQDMTVSVDIATARRDDVVIVPARAVNDAAAAPYVLKASGGRAVRQPVKLGLRGVGFYEVIDGLVPGDRVIPLATGVKPD
MNPIQHILDTYPLIVLDGAMATELERKGCNLNDSLWSAKILMEEPELIKQVHTDYFAAGADCAITASYQSTFEGFAARGLSEAEARRLIELSVSIAAEARDEFWSLEENRLNRPKPIIAASIGPYGAYLADGSEYRGNYAISEDELIEFHRPRMKALIEAGADVLACETIPCLTEAKAIVRLLKEFPETYAWISFSAKDGLHISDGTPAADCASWLDEHRQIAALGINCTPLQHIPSLIEELKKNTSKPIIVYPNSGEQYDPETKTWNGAACAESYGASARTWHEKGARLIGGCCRTKPENIQEIAAWARSLKTT
QILVVRNQVIFPYNGFELDVGRERSKKLIKALKNLKTKRLVLVTQKNSDQLNPEFDDIYHCGTLCDIDEIIEVPSEDGKTADYKIKGKGLQRVAITSFSDADLTKYDHHFLNSTLTENKALDKLLERIFPDKEDFAEILDSLNSFLELQELKKLSKVPKDIKRYDIITFKLASLIFKDITLQQAILEENDIEKRLQKIIGS

Soluble on expression in E. coli, not soluble:
MGSDKIHHHHHHSLDQAKKLYNDGKYAEAKPVFEKLVKQAPSNASYNQWYGVCCFETGDLAGAEKHLKVAVKRRVQDAYRYLGEVYYQTYRFNEAEEMFDEYITLLTKKKQDVEPYQIRMDLANKASRMLDKVENVQIIDSLVVDKDNFLSAYTLSEESGTLTTYQDFFQTNDPGNSSVYMNQKEDKIYYAHSTDGNHNCLFTQSKLIDQWGDEKQLPMNINSDADDGYPFVLSDGVTIYYASKGNSSLGGYDLFVTRYNINSDTYLTPEQLGMPYNSPFNDYMMVIDEAKQLGWFVSDRYQPEGKVCVYLFIPNDNRERVDSEDIELKRARASIASIKDSWKPGSNYEELIHLAHTEIPYGRIEIKKDFTFPIHNDIVYYTLDDIQSPEAKNYYEKVVSIHKQIKELNEKLESLRASYIKGNKAKREQLKPTILDTEEKLNNLLGQPDEWEKKARNAEIVYLRNNHK
MKELKQAEQIRTWVQSILTDESSGHDWHHVSRVADLAAYIGEKEKADLFIVETAALVHDLIDVKLPDTVRLSVSEVYDQLVFFGVGKENADRVIHIITRMSFRDRGKLAKEPLSIEGKAVQDADRLDAIGAVGIARAFMFAGAKGHGLYGDEQSAYAHFFHKLLRLKDMMNTDTARELAEERHNFMLQFVRQLEKDIPGIDAETS
MLDRILSIRKSRANRLRESMAKINSQIKEVDGKLDDCEQSIKESIASKQAYCASLVNLDKVSLYKYQIKNNAFDEQKQRLYEKKSSLSKEKRSLLDSQKRTKENLQHVNKSVEKLSFAIKEHYFD
MGSDKIHHHHHHMKMTFCRAVCLAAAFLLMGCDEAPETTTASPAAQVLEGKTMGTLWRVSVVGIDAKRAAELQTKIQTQLDADDWLLSTYKNDSALMRFNHSRSLAPWPVSEAMADIVTSALRIGAKTDGAMDITVGPLVNLWGFGPDRQPLHIPTPAQIDAAKAKTGLQHLQVIDRAGHQFLQKDLPDLYVDLSTVGEGYAADHLARLMEQEGIARYLVSVGGALSSRGMNAQGQPWRVAIQKPTDRENAVQAIVDINGHGISTSGSYRNYYELDGKRVSHVIDPQTGRPIEHNLVSVTVIAPTALEADGWDTGLMVLGTQKAQEVVRREGLAVFMIMKEGEGFKTWMSPQFKTFLVSDKN
MAFPRTLAILAAAAALVVACSHGGTPTGSSTTSGASPATPVAVPVPRSCAEPAGIPALLSPRDKLAQLLVVGVRDAADAQAVVTNYHVGGILIGSDTDLTIFDGALAEIVAGGGPLPLAVSVDEEGGRVSRLRSLIGGTGPSARELAQTRTVQQVRDLARDRGRQMRKLGITIDFAPVVDVTDAPDDTVIGDRSFGSDPATVTAYAGAYAQGLRDAGVLPVLKHFPGHGRGSGDSHNGGVTTPPLDDLVGDDLVPYRTLVTQAPVGVMVGHLQVPGLTGSEPASLSKAAVNLLRTGTGYGAPPFDGPVFSDDLSGMAAISDRFGVSEAVLRTLQAGADIALWVTTKEVPAVLDRLEQALRAGELPMSAVDRSVVRVATMKGPNPGCGR
MSFQLHPDTTLDVVHLYVSNVKKSLEFYTEVLSMKVLKEEEAVVTFGNENDEPLLIIEEKKEAFPKQRGRTGLYHYAILLPSRQDLANVLRHLVEMVYPLHGGADHYFSEALYLADPDGNGIEIYHDRQKEVWRDENGELPFVSNPLAGEELLQQGSTWNGFPAGTVMGHIHFHVADLEEAKCFYVDGLGFEVTIPARNGALFVSAGGYHHHIGLNTWQGEGVPPQMPGSVGLKYFTIVLADEKQKEQVCESLKNIGKIATYKDGILQVEDPFGHCIHFKIKGEA
MYIILVYDIGEKRVGKMLKLCRKYLNWIQNSVFEGEISEVKLLELKSRAAGIMEKEEDSLIIFSSRQERWLEKEIIGKERSATDIFL
MSQANANFLDNSKVSANKTAESGQLKEFRTPPHNLAIEQAVLAALMTVAESFEQVNDLLKENDFYATRHKYIFRAIEKLAQENSPYDAVLVNDWLLKQNLLDAIGGEEYLMQLMADSPSSFYNLETYASKIKEFSTLRSMIKVSSDILQNAYDTKGRPVSEILDLAETSIFSLAEQHNNNKKDAGPKSISSVTADVISKLDELSKLDGNITGLTTGFLELDNKTYGMQSGDMIIVAARPSMGKTTFAMNLVESVLFNCNLPALVFSMEMPADSIAMRLISSYGKVHQGHLRSGKLDGDEWSKVTGTILQLQEKHLYIDDSSALPPTELRARARRIAKQHGGKLGCIMIDYLQLMKVPGMGDNRVGEIGEISRSLKALAKEMDCPVIALSQLNRSLENRPNKRPVMSDLRESGAIEQDADLIMFIYRDEVYNKESKEAGTAEIIIGKQRNGPIGTVRLAFEGQYTRFSNLSPEYYSQYDDEE
MGSDKIHHHHHHMPGFSADLDCVPGSIRSQVEENYRVWRRAWITSSAQPAVNSSGRALRLQPRHTAQRRTASESGADAGGELNGITIPTTATTRYAERRGISIVRTYADEGKSGLRIDGRRALQQLIKDVEGGTADFQIILVYDVSRWGRFQDADESAYYECICRRAGIQVAYCAEQFENDGSPVSTIVKGVKRAMAREYSRELSAKVFAGQCRLIELGYRQGSPAGFGLRRVLIDQQGSSKGMLARGEQKSLQTDRVVLMPGPGDEIRIVHQIYRWFIDEGLGDSEIAMRLNSIRVRTDFDRYWTRATVHEVLTNEKYIGNNVYNRISFKLKKLRVVNTPDMWDQKGRRV
MGSDKIHHHHHHMNVEKLKKMKGKEKIVMVTAYDAPSARIARDAGIDVILVGDSLGNNVLGYENTIPVTMEEMLIHVAAVKRGAPDAFIVADMPFLSYQTSVEKAVENAGKFLKVGANAVKIEGGEEFGELVQKLVESGIPVMGHIGLTPQFVNRFGGYRVQGKTEKNREYLLRSARELEKRGAFAIVLELVVEEVAKEITESVSIPTIGIGSGRFCDGQVLVWHDLLGLNPDFAPRFSKKYANLYEVILKALQEFRREVKKGLFPTEEHSFTDKSKGGVSS
MGSDKIHHHHHHMRVFIIHLSPKTCQNFSLKETHITPLLESLKLQGISYEIFDAIYSKISPTQLHPLILEHLHPSFMVEDLWAFCKNKKHPPCALKNFFYAIKHCGKRMGFGELGCYASHYSLWQKCIELNEAICILEDDIIIKDRFKESLEFCRHHINELGYIRLMHLEENVAKQKTPVKGVSQILNFKDGIGTQGYVLAPKAAQKLLKYSAKEWVMPIDCVMDRHYWHGVKNYVLEEFAIACDGMNAQNSNTEKQRPKKLPLSIRIGRSLHKSTIKFLDKVFRYSPKLIRIGKH
MSLDNFLTTGFLDIIPLSQPLEFRREGLQHGVLDKLRSGKYPQQASLNLLRQPVEECRKMMFSFIQQAMADGLRNVLIIHGKGREDKSHANIVRSYVARWLTEFDDVQAYCTALPHHGGSGACYVALRKTAQAKQENWERHAKRSREGHHHHHH
MSVTMSEAFDYSMIDNILSEHGTSETAIIAILQSIQEEYHYIPKEVFPYLSKKLKVSEARIFSVATFYENFSLEPKGKYIIKVCDGTACHVRKSIPIIERLRKELGLSGTKPTTDDLMFTVETVSCLGACGLAPVITVNDKVYAEMTPDKASELIKQLREGDADA
MGSDKIHHHHHHMNNKIYFTPGPSELYPTVRQHMITALDEKIGVISHRSKKFEEVYKTASDNLKTLLELPSNYEVLFLASATEIWERIIQNCVEKKSFHCVNGSFSKRFYEFAGELGREAYKEEAAFGKGFYPADITVPADAEIICLTHNETSSGVSMPVEDINTFRDKNKDALIFVDAVSSLPYPKFDWTKIDSVFFSVQKCFGLPAGLGVWILNDRVIEKSKALLAKRKSIGTYHTIPSMLEKARVNQTPETPNAMNIFLLGKVTGDMLQISADGIRKQTEEKAALINTYIESSKVFSFGVEDAKLRSMTTIVANTTMLPGEINKILEPFDMAVGAGYGSKKETQIRIANFPAHSLEQVHKLVQTLKEKIG
MGSDKIHHHHHHMKIYLVGGAVRDSLLGLPVTEKDWVVVGATPEHLLAQGYQQVGKDFPVFLHPISRDEYALARTERKSGKGYTGFVCHAEPDVTLEQDLLRRDLTINAIARTERGDLIDPYHGRRDLDNRVLRHVSDAFSEDPLRVLRVARFAARFAHLGFQIAEETMALMQKMAHEGELAFLTPERVWKETEKALGTSSPDVYFQVLRDCGALAVLFPEIDNLYGVPAPAKWHPEIDTGIHTMMTVAMAARLSPDIDVRFATLCHDLGKGLTPPELWPRHLGHGPAGVKLVEALCQRLRVPNPIRDLAKLVAEYHDLVHTVQVLQPKTLLKLFDAIDVWRKPQRLEQLALTSEADARGRTSFEENPYPQGNYLREAFRVASQVSSASVVADGFKGIDVRNELARRRIHALADWKAQQPDVSSTS
